Assay results published in US9090686B2, “Antibodies for the treatment of HIV” (Pierre Fabre Medicament, priority 2009, dated 2015).

B1: 515H7: murine anti-CXCR4 monoclonal antibody; light chain variable domain SEQ ID No. 7, heavy chain variable domain SEQ ID No. 8 (antibody, listed as Mus musculus, V domains shown)
VH: EVNLVESGGGLVQPGGSLRLSCATSGFTFTDNYMSWVRQPPGKALEWLGFIRNKANGYTTDYSASVRGRFTISRDNSQSILYLQMNALRAEDSATYYCARDVGSNYFDYWGQGTTLTVSS
VL: DIVMSQSPSSLAVSAGEKVTMSCKSSQSLFNSRTRKNYLAWYQQKPGQSPKLLIYWASARDSGVPARFTGSGSETYFTLTISRVQAEDLAVYYCMQSFNLRTFGGGTKLEIK
B2: 301aE5: murine anti-CXCR4 monoclonal antibody; light chain variable domain SEQ ID No. 34, heavy chain variable domain SEQ ID No. 35 (antibody, listed as Mus musculus, V domains shown)
VH: QVQLKESGPGLVAPSQSLSITCTVSGFSLTDYGVYWVRQPPGKGLEWLGMIWGDGTTDYNSALKSRLSISKDNSKSQVFLKMNTLQTDDTARYYCARGRQFGFDYWGQGTTLTVSS
VL: DIVMSQSPSSLAVSAGEKVTMRCKSSQSLFNSRTRKNYLAWYQQKPGQSPKLLIFWASIRESGVPDRFTGSGSGTDFTLTISSVQAEDLAVYYCKQSYNLRTFGGGTKLEIK
B3: c515H7: chimeric antibody 515H7: murine variable domains fused to human Ckappa and IgG1/IgG2/IgG4 constant domains; isotype tested not stated (antibody, V domains shown)
VH: EVNLVESGGGLVQPGGSLRLSCATSGFTFTDNYMSWVRQPPGKALEWLGFIRNKANGYTTDYSASVRGRFTISRDNSQSILYLQMNALRAEDSATYYCARDVGSNYFDYWGQGTTLTVSS
VL: DIVMSQSPSSLAVSAGEKVTMSCKSSQSLFNSRTRKNYLAWYQQKPGQSPKLLIYWASARDSGVPARFTGSGSETYFTLTISRVQAEDLAVYYCMQSFNLRTFGGGTKLEIK

Key:
[1] = system: NIH3T3 cells; assay: FACS binding to parent NIH3T3 cells; conditions: for binding to parent NIH3T3 cells (in words): FACS; for NIH3T3 (MFI): Mab 10 μg/ml, Mean Fluorescence Intensity by FACS
Description: (§1) NIH3T3 and NIH3T3-hCXCR4 transfected cells were incubated with 10 μg/ml of monoclonal antibodies 515H7 and 301aE5. The cells were then washed with 1% BSA/PBS/0.01% NaN3. Next, Alexa-labeled secondary antibodies were added to the cells and were allowed to incubate at 4° C. for 20 min. The cells were then washed again two times. Following the second wash, FACS analysis was performed.
as §1, with “NIH3T3-hCXCR4” for “NIH3T3 and NIH3T3-hCXCR4”, “a dose range” for “10 μg/ml”, “antibody c515H7 from 0 μg/ml to 10 μg/ml.” for “antibodies 515H7 and 301aE5.”, “1%BSA/PBS/0.01%” for “1% BSA/PBS/0.01%”
NIH3T3, NIH3T3-hCXCR4 transfected were incubated with 0 to 10 μg/mL of humanized Mabs 515H7 (hz515H7 VH1 D76N VL2, hz515H7 VH1 D76N VL2.1, hz515H7 VH1 D76N VL2.2, hz515H7 VH1 D76N VL2.3) for 20 min at 4° C. in the dark in 100 μl Facs buffer. After 3 washing in Facs buffer, cells were incubated with the secondary antibody, a goat anti-human Alexa 488 (dilution 1/500), for 20 minutes at 4° C. in the dark. After 3 washing in Facs buffer, propidium iodide was added in each well and only viable cells were analyzed by Facs. At least 5000 viable cells were assessed to evaluate the mean value of fluorescence intensity for each condition.

[2] = target: T1, CXCR4 homodimer (Homo sapiens, UniProt P61073); assay: BRET on HEK293 cells expressing CXCR4/Rluc+CXCR4/YFP; assay type: cell-based; conditions: without SDF-1
T1 construct: expressed in transfected cells; host or cells: HEK293, transient transfection
T1 sequence (P61073 whole entry): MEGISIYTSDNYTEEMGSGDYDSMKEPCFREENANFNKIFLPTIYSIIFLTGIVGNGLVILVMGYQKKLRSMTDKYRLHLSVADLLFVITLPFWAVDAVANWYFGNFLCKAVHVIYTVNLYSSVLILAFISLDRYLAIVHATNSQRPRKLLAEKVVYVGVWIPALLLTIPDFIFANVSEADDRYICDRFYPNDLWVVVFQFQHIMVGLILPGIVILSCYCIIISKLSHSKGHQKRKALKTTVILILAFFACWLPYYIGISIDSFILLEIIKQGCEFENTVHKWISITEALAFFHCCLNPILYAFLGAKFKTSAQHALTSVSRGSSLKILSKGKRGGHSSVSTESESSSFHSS
T1 sequence (P61073 whole entry): as above
Source text: This functional assay allows to evaluate the conformational changes induced upon SDF-1 and/or 515H7 Mab binding to CXCR4 receptor at the level of CXCR4 homodimer.
(§2) Expression vectors for the investigated interaction partners were constructed as fusion proteins with the corresponding dye (Renilla reniformis luciferase, Rluc and Yellow fluorescent protein, YFP) by applying conventional molecular biology techniques. Two days prior performing BRET experiments, HEK293 cells were transiently transfected with expression vectors coding for the corresponding BRET partners: [CXCR4/Rluc+CXCR4/YFP] to study CXCR4 homodimerization. The day after, cells were distributed in poly-lysine pre-coated white 96 MW plates in complete culture medium [DMEM supplemented with 10% FBS]. Cells were first cultivated at 37° C. with CO2 5% in order to allow cell attachment to the plate. Cells were then starved with 200 μl DMEM/well overnight Immediately prior to the BRET experiment, DMEM was removed and cells were quickly washed with PBS. Cells were then incubated in PBS in the presence or absence of antibody, 10 min at 37° C. prior to the addition of coelenterazine H 5 μM with or without SDF-1 300 nM in a final volume of 50 μl. After incubation for further 10 minutes at 37° C., light-emission acquisition at 485 nm and 530 nm was initiated using the Mithras LB940 multilabel reader (Berthold) (1 s/wavelength/well repeated 15 times at room temperature).
(§3) Calculation of BRET ratio was performed as previously described (Angers et al., 2000): [(emission530 nm)−(emission485 nm)×Cf]/(emission485 nm), where Cf=(emission530 nm)/(emission485 nm) for cells expressing the Rluc fusion protein alone under the same experimental conditions. […] For sake of readability, results are expressed in mi11iBRET units (mBU); mBU corresponds to the BRET ratio multiplied by 1000.
This functional assay allows to evaluate the conformational changes induced upon SDF-1 and/or c515H7 Mab binding to CXCR4 receptor at the level of CXCR4 homodimer.
as §2, with “Cells were then incubated in PBS in the presence or absence of antibody, 10 min at 37° C. prior to the addition of coelenterazine H 5 μM with or without SDF-1 300 nM in a final volume of 50 μl.” left out
as §3, with “milliBRET” for “mi11iBRET”, “1000. […]” for “1000.”

Molecule	binding to parent NIH3T3 cells (in words) [1]	NIH3T3 (MFI) [1]	modulation of CXCR4/CXCR4 spatial proximity by the Mab itself [2]
B1	no recognition	16	able to modulate by themselves CXCR4/CXCR4 spatial proximity
B2	no recognition	21	able to modulate by themselves CXCR4/CXCR4 spatial proximity
B3	No binding was detected		able to modulate by itself CXCR4/CXCR4 spatial proximity
